Laboratory results published in US8318488.
Each block holds one substance with its values, some of them ahead of it.

Key:
Experiment in all cases: cell-based or functional assay
[1] = biological target: endothelin receptor A (ETA) (UniProt Q61614)
[2] = biological target: endothelin receptor B (ETB) (UniProt P48302)
[3] = biological target: calcium/calmodulin-dependent protein phosphatase calcineurin

Sequence of endothelin receptor A (ETA) (Q61614 21-427 limits assumed): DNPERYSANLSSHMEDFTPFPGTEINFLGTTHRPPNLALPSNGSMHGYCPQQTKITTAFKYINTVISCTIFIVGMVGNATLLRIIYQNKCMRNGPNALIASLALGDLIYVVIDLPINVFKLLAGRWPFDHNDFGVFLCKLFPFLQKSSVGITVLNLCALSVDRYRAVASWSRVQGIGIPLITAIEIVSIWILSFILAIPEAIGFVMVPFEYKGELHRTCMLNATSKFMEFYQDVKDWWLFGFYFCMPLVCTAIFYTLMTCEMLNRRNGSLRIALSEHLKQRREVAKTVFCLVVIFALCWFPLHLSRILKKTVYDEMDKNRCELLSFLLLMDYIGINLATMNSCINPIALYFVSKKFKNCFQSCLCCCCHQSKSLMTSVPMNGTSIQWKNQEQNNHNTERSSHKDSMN
Sequence of endothelin receptor B (ETB) (P48302 27-442 limits assumed): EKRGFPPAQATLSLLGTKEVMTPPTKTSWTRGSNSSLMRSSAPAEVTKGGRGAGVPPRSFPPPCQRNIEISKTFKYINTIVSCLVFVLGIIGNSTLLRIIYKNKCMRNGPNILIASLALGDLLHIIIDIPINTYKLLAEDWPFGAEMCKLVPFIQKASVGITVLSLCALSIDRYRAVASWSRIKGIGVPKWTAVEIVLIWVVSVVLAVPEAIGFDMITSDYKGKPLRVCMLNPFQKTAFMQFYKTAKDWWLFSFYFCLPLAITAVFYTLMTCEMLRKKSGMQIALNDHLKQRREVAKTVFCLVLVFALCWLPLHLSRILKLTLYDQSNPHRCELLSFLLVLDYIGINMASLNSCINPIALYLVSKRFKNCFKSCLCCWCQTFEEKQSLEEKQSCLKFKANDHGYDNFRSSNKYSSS

ANF expression (RT-PCR) after ET-1 stimulation, relative to ET-1 without compound (100%); BQ123 1 µM [1]: 50%
BNP expression (RT-PCR) after ET-1 stimulation, relative to ET-1 without compound (100%); BQ123 1 µM [1]: 60%
Substance: BQ-123 (peptide)

ANF expression (RT-PCR) after ET-1 stimulation, relative to ET-1 without compound (100%); BQ788 1 µM [2]: 70%
BNP expression (RT-PCR) after ET-1 stimulation, relative to ET-1 without compound (100%); BQ788 1 µM [2]: 70%
Substance: BQ-788 (peptide)

ANF expression (RT-PCR) after ET-1 stimulation, relative to ET-1 without compound (100%); cyclosporin A 1 µg/ml [3]: 70%
ANF expression (RT-PCR) after PE stimulation, relative to PE without compound (100%); cyclosporin A 1 µg/ml [3]: 70%
BNP expression (RT-PCR) after ET-1 stimulation, relative to ET-1 without compound (100%); cyclosporin A 1 µg/ml [3]: 50%
BNP expression (RT-PCR) after PE stimulation, relative to PE without compound (100%); cyclosporin A 1 µg/ml [3]: 70%
Substance: Cyclosporin A (peptide)
